From the supplement of paper PMC9170038

Test system: MS2 coat protein
Test: apparent KD of MS2 coat protein; designed switch direction (-1 OFF switch, 1 ON switch): -1; higher = weaker reporter binding
Summary of the method: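 The reported apparent KD is a per-design median over clusters, from curve fits of normalised cluster fluorescence. Protein titrations used SNAP-549-labelled MS2 coat protein, doubled from 0.7 or 1.5 nM to 3 µM, in Tris-HCl pH 7.5 buffer with KCl, MgCl2, BSA, DTT, tRNA and Tween-20, with no input, 200 uM small-molecule ligand, or an oligonucleotide input. The RNA switches were transcribed on Illumina chips by stalled E. coli RNA polymerase.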

[1] = input ligand: microRNA oligo, concentration not stated
[2] = Eterna round: R95, input ligand: FMN 200 uM
[3] = Eterna round: R95, input ligand: microRNA oligo, concentration not stated
[4] = Eterna round: R95, input ligand: none

Sequence	apparent KD of MS2 coat protein (input ligand: FMN 200 uM) [µM]	apparent KD of MS2 coat protein [1] [µM]	apparent KD of MS2 coat protein (input ligand: none) [µM]	apparent KD of MS2 coat protein [2] [µM]	apparent KD of MS2 coat protein [3] [µM]	apparent KD of MS2 coat protein [4] [µM]
ACAUGUAAUGCAGGAUAUUUGACACAUGAGGAUCACCCAUGUGACCAGAGGAAUUGCUAUGAGUCGAAGAAGGGUAUGUACAUG [Ex NG2 #55] (Eterna round: R96, puzzle: Exclusion NG 2)	0.0562	0.0447	0.0429			
CAGCCUCAGGUUAGGAUAUACGCGUGGCCGAAGGAGUAGAAGGGACAUGAGGAUCACCCAUGUGGGUUCAAAUG [Onsoisgeso] (puzzle: Brourd's mod of Exclusion 4)				0.292	0.151	0.27
CGAUAAAGCUGAGGAUAUGAGGAGAGAGAGAGAUCAGAAGGCAGACAUGAGGAUCACCCAUGUGAGUUCUCGAAAUUAAAUAUU [Prohibition 48 - Jieux - Exclusion NG 1] (Eterna round: R96, puzzle: Exclusion NG 1)	0.225	0.047	0.0575			
CUAGAUCUUCGGAUCUAGGACAUGAGGAUCACCCAUGUCACGAGCAGAUCUUCAUGCAAGCUUUUUGCUCGUCUUAU [Sensor v3 - Turn-off variant 1 - 37] (puzzle: Sensor v3, turn-off variant 1)				0.0273	0.409	0.0334
CAAAUCAGGCGAGGAUAUCCGAAAGGAAGUGUAGGAGAAGGCGCGAAAUAUAAAACAUGAGGAUCACCCAUGUCGUCCCGUGUG [PowerStrip EXNG 1.21] (Eterna round: R96, puzzle: Exclusion NG 1)	0.169	0.117	0.13			
AACGAGGCAGGAUAUACAUGAGGAUCACCCAUGUGCUUGCAUGGCGUGGGAAGUCAUCGUAGAAGGGCUAUGCC [EX3 #64] (Eterna round: R97, puzzle: Exclusion 3)	0.21		0.283			
UUGUUAUGUGUAGGAUAUGCGUGUUAUUAUUAUGCAGAAGGACAUGAGGAUCACCCAUGUGUAUUGUUAUUAUAUAUUAUAUAU [Title] (Eterna round: R96, puzzle: Exclusion NG 1)	0.021	0.0132	0.0208			
CGUGCGUAUGUGAGGAUAUGCUGGUCCUUGGAUCAGCAGAAGGCACAUGAGGAUCACCCAUGUGGUGUCGUACC [salish99_Bmod_Ex4_001] (puzzle: Brourd's mod of Exclusion 4)					0.17	
CCGAUAAUGUAGGAUAUCGUAUCGGAAACGAUACGAGAAGGGCAAACAUGAGGAUCACCCAUGUUCCUUAACGG [Mat - Exclusion 6 - Eli Mod - D72] (puzzle: Exclusion 6)					0.0158	
AAUGUUUGAUUCCACUUAUACAUGAGGAUCACCCAUGUUAUCGAGGAUAUGCAUUAGAGUGUUUAGCAGAAGGCGAUGUAAUUG [JR_ExcNG3_Sub034] (Eterna round: R96, puzzle: Exclusion NG 3)	0.0902	0.0131	0.0138			
AGAGUGAGAGGAUAUUGGAUUCCUAACAUGAGGAUCACCCAUGUAGUACGGUGCUACUGACAAGAAGGCUCACUCU [etrenacac ex5r4 #7] (Eterna round: R97, puzzle: Exclusion 5)	0.0545		0.0761			
UAAUAAAGUGUGAGGAUAUGCUGGUCCAUAGAUCAGCAGAAGGCACAUGAGGAUCACCCAUGUAAUAUAUAAAU [Mat - Exclusion 4 - JL Mod - D57] (Eterna round: R96, puzzle: Brourd's mod of Exclusion 4)		0.0237				
AAUCCACAUGAGGAUCACCCAUGUCAGGAUAUCGCGCGCGCGUUUUCGGUCUUGCGCGCGAGAAGGGACGGCUG (puzzle: Exclusion 1)					0.0229	
ACAAGCUUAGGUAAUCAUAACAUGAGGAUCACCCAUGUUCGUCUUAUAAAAAUAAAAAUAAAAAACAAAAAAUAAAA [Sensor V2: 65] (Eterna round: R96, puzzle: Sensor v2, turn-off variant)	0.0333	0.0706	0.0338			
CCCAUGUCAGGAUAUUAAUUGAGCAGGAAGCCCUGUUCACUUGAGAAGGGACAUGAGGAUCACCCAUGUAAAAC [Aesvea] (Eterna round: R97, puzzle: Exclusion 4)	0.0301		0.384			
ACGAAGCACGAGGAUAUGACCAUAGUGAUAUGGUCAGAAGGCGUAACAUGAGGAUCACCCAUGUAGUGGCCUCG [Eternabot (Original) Solution 12] (Eterna round: R97, puzzle: Exclusion 6)	0.212		0.0201			
GAUUACUGCAAGCUUAGGGACAUGAGGAUCACCCAUGUUCGUCUUAUUGAUCUAGGUACGCUGACGUACCUAGAUCU [JL-sv1-2.29 Brourd mod] (puzzle: Sensor v3, turn-off variant 1)				0.0147	0.0194	0.0138
UUCACAUGGACAUAAGAUCACAUGAGGAUCACCCAUGUGAAUAACAAGCUUUUUGUUCGUCUUAUGUCCAAUAAUAA [Stov1/14-B1] (Eterna round: R97, puzzle: Sensor, turn-off variant 1)	0.0123		0.0126			
ACGAAACAUGAGGAUCACCCAUGUGAGGAUAUGUAAAUAGUAAACAAAUAAGAAAUAAACAGAAGGCACACAGG [JR_Exclusion1_Sub004] (puzzle: Exclusion 1)				0.0572	0.0263	0.0282
GUUAACGAUGAGGAUAUAUGAUAUCAAAGCAUCAUAGAAGGCAUCACAUGAGGAUCACCCAUGUGAUCUUCUUG [Mat - Exclusion 6 - JL Mod - D27] (Eterna round: R97, puzzle: Exclusion 6)	0.12		0.0294			
UUAAAGGCAGGAUAUACAUUUUUUUUAUUAUCCUCAUUAUUACAUGAGGAUCACCCAUGUAGAAGGGCCAAAUU [Mat - Exclusion 2 - Mod of Hog - D85] (puzzle: Exclusion 2)					0.0576	
AGCUGUGGCCGAGGAUAUCACAUGAGGAUCACCCAUGUACAUGAUUAGGCCUGGUAACAGGCUCGUGAGAAGGCGGUCUCAGCA [Eli eng2 - 010] (Eterna round: R96, puzzle: Exclusion NG 2)	0.0267	0.0311	0.0376			
GUCACAUGGACAUAGGAUCACAUGAGGAUCACCCAUGUGACUAACAAGCUUUUUGCUCGUCUUAUGUCUAUGUGAAA [Stov1/16-A1] (Eterna round: R97, puzzle: Sensor, turn-off variant 1)	0.0128		0.012			
GCUGCGCGAGGAUAUGCGGUUUGUGCUUUGGCCCAUGGCGUACAUGAGGAUCACCCAUGUAGAAGGCGUGUGGG [Apr-15 SS2-52] (puzzle: Exclusion 2)					0.012	
AUCGUGCAGCAAAGCUGUACGAGUACAUGAGGAUCACCCAUGUAGGAUAUGGUACGCAAAGCGUGCUAGAAGGAUAUGAGAUUU [Mat - Exclusion NG 3 - Mod of JL - D100] (Eterna round: R96, puzzle: Exclusion NG 3)	0.0554	0.0278	0.0452			
